Results published in patent US20260035464A1 (STAIDSON BIOPHARMA, published 2026).

T1: extracellular domain of human BTLA with FAS, expressed on Jurkat cells (human, UniProt Q7Z6A9 31-157; P25445 174-335, limits assumed)
T1 sequence (looked up): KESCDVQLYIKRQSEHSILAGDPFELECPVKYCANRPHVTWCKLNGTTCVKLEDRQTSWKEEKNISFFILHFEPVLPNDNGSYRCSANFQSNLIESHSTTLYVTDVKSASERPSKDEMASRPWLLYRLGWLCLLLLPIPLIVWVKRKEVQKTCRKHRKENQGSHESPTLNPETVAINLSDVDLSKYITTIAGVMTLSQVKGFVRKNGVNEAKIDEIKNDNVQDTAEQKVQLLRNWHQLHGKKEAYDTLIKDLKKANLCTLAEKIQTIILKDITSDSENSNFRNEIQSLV

T2: human BTLA extracellular domain with C-terminal 10xHis tag (human, UniProt Q7Z6A9 31-157)
T2 construct: also called HuBTLA-His; His-tag-huBTLA
T2 sequence: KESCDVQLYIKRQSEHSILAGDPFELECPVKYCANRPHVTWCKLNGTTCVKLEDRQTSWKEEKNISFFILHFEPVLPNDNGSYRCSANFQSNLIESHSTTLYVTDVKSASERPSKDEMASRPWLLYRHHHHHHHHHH

T3: huBTLA as coated in the binding ELISA of Example 3 (tag not stated) (human, UniProt Q7Z6A9 31-157)
T3 construct: Detection was with anti-human IgG Fc
T3 sequence: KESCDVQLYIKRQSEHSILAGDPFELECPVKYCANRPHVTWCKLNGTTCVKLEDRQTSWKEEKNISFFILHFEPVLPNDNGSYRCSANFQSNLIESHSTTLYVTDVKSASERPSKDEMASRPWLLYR

T4: human BTLA extracellular domain with C-terminal mouse IgG2a Fc tag (human; mouse, UniProt Q7Z6A9 31-157)
T4 construct: also called huBTLA with mIgG2a Fc tag; not shown: mouse IgG2a Fc, C-terminal
T4 sequence: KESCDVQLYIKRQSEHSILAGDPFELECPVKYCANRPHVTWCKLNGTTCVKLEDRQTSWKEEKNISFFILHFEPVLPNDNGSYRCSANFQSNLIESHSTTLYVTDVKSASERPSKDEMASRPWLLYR

T5: rhesus monkey BTLA extracellular domain protein with His tag (Sino Biological, cat #90250-C08H) (rhesus monkey, UniProt G7MKA9 31-157)
T5 construct: extracellular domain; Bought protein; also called His-tag-rhesus monkey BTLA; not shown: His tag
T5 sequence: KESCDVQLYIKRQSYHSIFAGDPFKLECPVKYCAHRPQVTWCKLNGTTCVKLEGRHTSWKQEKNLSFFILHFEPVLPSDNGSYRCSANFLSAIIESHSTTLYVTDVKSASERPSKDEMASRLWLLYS


Experiments:
[1] = target: T1, extracellular domain of human BTLA with …; test: cell-based or functional assay
[2] = target: T6, human BTLA (Uniprot Q7Z6A9) expressed on cells (human, UniProt Q7Z6A9 31-289); test: cell-based or functional assay
[3] = target: T6, human BTLA (Uniprot Q7Z6A9) expressed …; test: flow cytometry on huBTLA-overexpressing Expi293 cells, MFI
Protocol: (§1) Expi293 cells stably overexpressing huBTLA were incubated with the chimeric anti-BTLA antibodies 83F2 or 86B7 in PBS containing 0.5% BSA, 1 mM EDTA, and 0.1% sodium azide (FACS buffer) for 30 minutes at 4° C. The cells were washed, and then incubated with 10 nM phycoerythrin (PE) conjugated anti-Human Fc Ab (BioLegend, cat #409304) for 20 minutes at 4° C. Cells were washed and then analyzed by flow cytometry with Attune (ThermoFisher Scientific). Data were analyzed with FlowJo software. Antibody binding is represented as median fluorescence intensity (MFI).
FACS based binding assays of humanized anti-BTLA antibodies were performed as described above in Example 3.

[4] = target: T2, human BTLA extracellular domain with …; test: BLI (Octet RED96), antibody on AHC biosensor, His-tag-huBTLA in solution
Protocol: (§2) The following kinetic assay was performed using anti-human IgG Fc capture (AHC) biosensors (ForteBio) in kinetics buffer (PBS, 0.1% Tween-20 and 1% bovine serum albumin): (a) antibody (2 μg/mL) for 300 sec, (b) baseline for 120 sec, (c) association with purified His-tag-huBTLA (2.5, 0.5 and 0 μg/mL) and His-tag-rhesus monkey BTLA (Sino Biologcal, cat #90250-C08H) (2.5, 0.5 and 0 μg/mL) for 420 sec and (d) dissociation for 1200 sec. Data fitting and analysis was performed with Octet data analysis software 8.0 (ForteBio) using a 1:1 binding model after Savitzky-Golay filtering.
(§3) Binding affinities (monovalent Kd) of humanized anti-BTLA antibodies were determined using Biolayer interferometry on the Octet RED96 instrument (ForteBio) as described above in Example 3, except for (c) association with His-tag-huBTLA ([…]) for 420 sec.

[5] = target: T2, human BTLA extracellular domain with …; test: BLI (Octet RED96), antibody on AHC biosensor, His-tag-huBTLA in solution; column head prints nM, but Koff/Kon shows the values are in M
Protocol: as §2, §3

[6] = target: T6, human BTLA (Uniprot Q7Z6A9) expressed …; test: flow cytometry blocking assay on huBTLA-overexpressing Expi293 cells, antibody titrated, soluble human HVEM-mouse IgG2a Fc detected
Protocol: (§4) Expi293 cells stably overexpressing huBTLA were incubated with chimeric anti-BTLA antibody 83F2 or 86B7 for 30 minutes at 4° C. The cells were washed, and then incubated with human HVEM-mouse IgG2a Fc recombinant protein (Acro Biosystems, cat #HVM-H5255) at […] concentration for 20 minutes at 4° C. The human HVEM bindings were detected by goat anti-mouse Alexa 488 secondary antibody (ThermoFisher, cat #A-11029). Cells were washed and acquired by flow cytometry with Attune. Data were analyzed with FlowJo software. BTLA binding is represented as MFI.
FACS based blocking assays of humanized anti-BTLA antibodies were performed as described above in Example 3.

[7] = target: T6, human BTLA (Uniprot Q7Z6A9) expressed …; test: flow cytometry blocking assay, Expi293-huBTLA cells pre-incubated with titrated SB2003-12, then His-mouse HVEM (concentration not given) and PE anti-His antibody
Protocol: (§5) Cells were washed and stained with PE conjugated anti-His antibody (Thermofisher Scientific, CAT: TA150130). For antibody blocking assay, the exemplary humanized anti-BTLA antibody SB2003-12 was pre-incubated with the cell line followed by mouse HVEM and anti-His antibody staining. Cells were washed and fixed with 2% PFA and were analyzed by flow cytometry with Attune. MFI of HVEM staining was analyzed with FlowJo software.

[8] = target: T6, human BTLA (Uniprot Q7Z6A9) expressed …; test: cell-based or functional assay; remark: listed apart in the source
[9] = target: T3, huBTLA as coated in the binding ELISA …; test: ELISA, huBTLA coated at 0.333 ug/mL, anti-human IgG Fc-AP detection
Protocol: (§6) BTLA binding of purified recombinant chimeric antibodies by ELISA: The huBTLA and rhesus monkey BTLA antigen binding ELISA was performed on the purified recombinant chimeric antibodies. Briefly, 384-well, clear flat bottom high binding plates (Corning, cat #3700) were coated overnight at 4° C. with 0.333 μg/mL of huBTLA or rhesus monkey BTLA in PBS. The following purified process was performed as described in ELISA binding assay in Example 2, except that the secondary antibody was goat anti human IgG Fc-AP (Southern Biotech, cat #2014-04).

[10] = target: T4, human BTLA extracellular domain with …; test: blocking ELISA, huBTLA-mIgG2a Fc coated; competitor huHVEM-His (2 ug/ml)
Protocol: HVEM blocking by purified recombinant chimeric antibodies by ELISA: Human HVEM (huHVEM) blocking ELISA was performed on purified recombinant chimeric anti-BTLA antibodies. Briefly, 384-well, clear flat bottom high binding plates (Corning, cat #3700) were coated overnight at 4° C. with 0.333 μg/mL purified huBTLA with mIgG2a Fc tag in PBS (coating solution). After removing the coating solution, the plates were blocked by adding blocking buffer and incubated at 37° C. for 1 hour. Plates were then washed 3 times with wash buffer. Serial dilution of purified chimeric antibodies in PBS were added to individual well followed by incubation at 37° C. for 1 hour. Plates were washed 3 times with wash buffer. Then 30 μL per well of 2 μg/ml human HVEM with His tag (Sino Biological, cat #10334-H08H) in assay buffer was added into the reaction and incubated for 1 hour. Plates were washed 3 times with wash buffer. Then 30 μL per well of mouse anti-his-AP (Southern Biotech, cat: 4603-04) at 1:500 dilution in ELISA diluent was added, and incubated at 37° C. for 30 min, then the plates were washed 5 times with wash buffer and developed for 30 minutes with 30 μL per well of pNPP substrate. Plates were analyzed with a Bio-TEK at 405 nm. The blocking IC₅₀ value represents the antibody concentration that inhibited 50% of huHVEM binding to coated human BTLA.

[11] = target: T6, human BTLA (Uniprot Q7Z6A9) expressed …; test: flow cytometry on Expi293 cells stably overexpressing huBTLA, PE anti-human Fc
From the text: To examine the binding of the chimeric anti-BTLA antibodies to huBTLA overexpressing cells, Expi293 cells stably overexpressing huBTLA were used to perform FACS analysis. Briefly, the coding sequence of huBTLA (Uniprot, Q7Z6A9) was cloned into a lentiviral vector and the recombinant virus was packaged according to the instruction of the virus packaging kit (Lenti-X™ Packaging Single Shots, Cat #631275, Takada). The Expi293 cells were transduced with the recombinant virus.
as §1

[12] = target: T5, rhesus monkey BTLA extracellular domain …; test: ELISA, rhesus monkey BTLA coated at 0.333 ug/mL, anti-human IgG Fc-AP detection
Protocol: as §6

[13] = target: T3, huBTLA as coated in the binding ELISA …; test: ELISA, plate coated with huBTLA, detection with goat anti-human IgG Fc-AP, OD405
Protocol: as §6

[14] = target: T2, human BTLA extracellular domain with …; test: BLI (Octet RED96), antibody captured on AHC biosensor, His-tag-huBTLA in solution, 1:1 model
Protocol: as §2

[15] = target: T5, rhesus monkey BTLA extracellular domain …; test: ELISA, plate coated with rhesus monkey BTLA, detection with goat anti-human IgG Fc-AP, OD405
Protocol: as §6

[16] = target: T6, human BTLA (Uniprot Q7Z6A9) expressed …; test: flow cytometry blocking on huBTLA-overexpressing Expi293 cells; competitor human HVEM-mouse IgG2a Fc
Protocol: as §4

[17] = target: T6, human BTLA (Uniprot Q7Z6A9) expressed …; test: flow cytometry, His-mouse HVEM on Expi293-huBTLA cells, PE anti-His antibody, MFI
Protocol: as §5

| EC50 of inhibition of huHVEM-Fc-induced apoptosis, Jurkat-huBTLA-FAS cells (ATP luminescence) [1] [nM] | EC50 of recovery of IL-2 production, Raji-HVEM/primary human T cell coculture [2] [nM] | EC50 (read off the curve) [3] [nM] | koff [4] [s⁻¹] | kon [4] [M⁻¹ s⁻¹] | Kd [5] [nM] | IC50 (read off the curve) [6] [nM] | IC50 (read off the curve) [7] [nM] | EC50 of recovery of IL-2 production, Raji-HVEM/Jurkat-BTLA coculture [8] [nM] | EC50 [9] [nM] | IC50 [10] [nM] | EC50 [11] [nM] | EC50 [12] [nM] | EC50 (read off the curve) [13] [nM] | Kd [14] [nM] | koff [14] [s⁻¹] | kon [14] [M⁻¹ s⁻¹] | EC50 (read off the curve) [15] [nM] | IC50 [16] [nM] | EC50 (read off the curve) [17] [nM] | Binder |
| --- | --- | --- | --- | --- | --- | --- | --- | --- | --- | --- | --- | --- | --- | --- | --- | --- | --- | --- | --- | --- |
| 0.0614 | 4.91 | ~0.8 | 8.05e-05 | 418000 | 0.198 | ~0.4 | ~2 | – | – | – | – | – | – | – | – | – | – | – | – | humanized anti-BTLA antibody SB2003-12 (antibody, V domains shown) VH: QVTLKESGPTLVKPTQTLTLTCTFSGFSLSTFGMGVSWIRQPPGKALEWLAHIYWDDDKRFNPSLKSRLTITKDTSKNQVVLTMTNMDPVDTATYYCAHGNWDGETYFDYWGQGTLVTVSS VL: DVVMTQSPLSLPVTLGQPASISCKSTQSLLDSDGKTYLNWLQQRPGQSPRSLIYLVSKLDSGVPDRFSGSGSGTDFTLKISRVEAEDVGVYYCWQGTHFPWTFGQGTKVEIK |
| – | – | – | – | – | – | – | – | 1.85 | 0.0564 | 1.24 | 1.85 | 0.0542 | ~0.4 | 2.91 | 0.000548 | 188000 | ~0.4 | 0.656 | – | chimeric anti-BTLA antibody 83F2 (antibody, V domains shown) VH: QVQFQQSGAELARPGASVKLSCKASGYTFTDFWIQWVKQRPGQGLEWIGTIYPGDGDTRENQKFKGRATLTADKSSSTAYMQLSSLESDDSAVYYCARGNGNSWFAYWGQGTLVTVSA VL: not shown |
| – | – | – | – | – | – | – | – | – | – | – | – | – | – | – | – | – | – | – | ~2 | His-mouse HVEM protein (Sino Biological, cat #10567-M03H) (ligand, UniProt Q80WM9 39-206, looked up, Bought protein; also called musHVEM; not shown: His tag) QPSCRQEEFLVGDECCPMCNPGYHVKQVCSEHTGTVCAPCPPQTYTAHANGLSKCLPCGVCDPDMGLLTWQECSSWKDTVCRCIPGYFCENQDGSHCSTCLQHTTCPPGQRVEKRGTHDQDTVCADCLTGTFSLGGTQEECLPWTNCSAFQQEVRRGTNSTDTTCSSQ |
| – | – | – | – | – | – | – | – | 2.54 | 0.0482 | 1.04 | – | 0.057 | ~0.3 | 1.18 | 0.000697 | 607000 | ~0.4 | – | – | chimeric anti-BTLA antibody 96F11 (antibody, V domains shown) VH: EVQLQQSGAELVKPGASVELSCTASGFNIKDTYIYWVKQRPEQGLQWIGRIDPANGHTKYDPRFQDKATLTAEISSNTAHLQLNSLTSEDTAVYFCVRGGDHPYYVMDWWGQGTSVTVSS VL: not shown |
